In patent publication US20060057696A1, “Sugar chain synthases” (priority 2002, published 2006):
One block for each molecule: values may come before it.

Columns and labels:
[1] = target: T1, PA-mST8Sia VI (mouse ST8Sia VI) (Mus musculus, UniProt Q8K4T1); assay: Sialyltransferase activity of PA-mST8Sia VI toward acceptor substrates; type: biochemical; details: for Relative rate (%) Mouse ST8SiaVI: incorporation with Fetuin taken as 100, substrate 0.5 mg/ml glycolipids, 1 mg/ml glycoproteins, monosaccharides and oligosaccharides
T1 construct: amino acids 26-398 in the case of mouse ST8Sia VI; signal peptide of mouse immunoglobulin IgM (N); made in house; host or cells: COS-7 cells, transient expression of pcDSA-mST8Sia VI; protein recovered from medium on IgG-Sepharose
T1 sequence (Q8K4T1 26-398): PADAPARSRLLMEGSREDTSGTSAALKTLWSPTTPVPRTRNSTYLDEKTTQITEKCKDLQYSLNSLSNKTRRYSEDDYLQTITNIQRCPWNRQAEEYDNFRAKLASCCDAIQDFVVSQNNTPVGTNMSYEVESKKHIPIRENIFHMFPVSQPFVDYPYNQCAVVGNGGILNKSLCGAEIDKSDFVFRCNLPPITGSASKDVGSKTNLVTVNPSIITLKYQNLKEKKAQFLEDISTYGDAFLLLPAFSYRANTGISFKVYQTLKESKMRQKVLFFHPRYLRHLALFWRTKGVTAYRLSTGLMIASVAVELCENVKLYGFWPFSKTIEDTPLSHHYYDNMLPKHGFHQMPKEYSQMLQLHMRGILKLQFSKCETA
Method: Using each expression vector and lipofectamine (Invitrogen), transient expression was carried out in COS-7 cells (Kojima, N. et al. (1995) FEBS Lett. 360, 1-4). The proteins of the present invention secreted from the cells into which each expression vector had been introduced were named as PA-mST8Sia VI (mouse) and PA-hST8Sia VI (human). PA-mST8Sia VI and PA-hST8Sia VI were adsorbed to IgG-Sepharose (Amersham Pharmacia Biotech), and were then recovered from medium. Sialyltransferase activity was measured as follows according to the method of Lee et al. (Lee, Y.-C. et al. (1999) J. Biol. Chem. 274, 11958-11967). A reaction solution (10 μl) containing 50 mM MES buffer (pH 6.0), 1 mM MgCl2, 1 mM CaCl2, 0.5% Triton CF-54, 100 μM CMP-[^14C]-NeuAc, a glycoconjugate (which was added at 0.5 mg/ml in the case of glycolipids, and at 1 mg/ml in the case of glycoproteins or oligosaccharides), and a PA-mST8Sia VI or PA-hST8Sia VI suspension, was incubated at 37° C. for 3 to 20 hours. Thereafter, in the case of glycolipids, the reaction product was purified with a C-18 column (Sep-Pak Vac 100 mg; Waters) and the purified product was used as a sample, and in the case of oligosaccharides or glycoproteins, the reaction product was directly used as a sample. Thus, the obtained samples were subjected to analysis. In the case of oligosaccharides or glycolipids, the sample was spotted on a silica gel 60 HPTLC plate (Merck), and was then developed with a developing solvent consisting of ethanol:pyridine:n-butanol:water:acetic acid=100:10:10:30:3 (for oligosaccharides), a developing solvent consisting of 1-propanol:ammonia water:water=6:1:2.5 (for oligosaccharides), or a developing solvent consisting of chloroform:methanol: 0.02% CaCl2=55:45:10 (for glycolipids). In the case of glycoproteins, analysis was carried out by SDS-polyacrylamide gel electrophoresis. The obtained radioactivities were visualized with a BAS2000 radio image analyzer (Fuji Film) and then quantified.

[2] = target: T2, human ST6Gal I (Homo sapiens, UniProt P15907); assay: Sialyltransferase activity of human ST6Gal I toward acceptor substrates (comparison); type: biochemical; details: incorporation with Galβ1,4GlcNAc taken as 100; 0.5 mg/ml glycolipids, 1 mg/ml glycoproteins and oligosaccharides
T2 sequence (P15907 1-406): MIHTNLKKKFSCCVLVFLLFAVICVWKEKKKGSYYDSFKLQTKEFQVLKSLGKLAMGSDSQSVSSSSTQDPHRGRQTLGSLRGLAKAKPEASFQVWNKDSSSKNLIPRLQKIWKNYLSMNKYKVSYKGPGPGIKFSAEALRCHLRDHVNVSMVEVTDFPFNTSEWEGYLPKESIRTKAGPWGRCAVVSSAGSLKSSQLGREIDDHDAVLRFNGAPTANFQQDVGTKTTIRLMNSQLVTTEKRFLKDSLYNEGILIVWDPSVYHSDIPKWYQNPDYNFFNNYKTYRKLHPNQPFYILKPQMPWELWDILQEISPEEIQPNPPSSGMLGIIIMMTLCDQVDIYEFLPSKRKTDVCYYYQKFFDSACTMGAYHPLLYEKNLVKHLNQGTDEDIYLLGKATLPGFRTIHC
Method: Using each expression vector and lipofectamine (Invitrogen), transient expression was carried out in COS-7 cells (Kojima, N. et al. (1995) FEBS Lett. 360, 1-4). The proteins of the present invention secreted from the cells into which each expression vector had been introduced were named as PA-hST6Gal II (human) and PA-mST6Gal II (mouse). PA-hST6Gal II and PA-mST6Gal II were adsorbed to IgG-Sepharose (Amersham Pharmacia Biotech), and were then recovered from medium. Sialyltransferase activity was measured as follows according to the method of Lee et al. (Lee, Y.-C. et al. (1999) J Biol. Chem. 274, 11958-11967). A reaction mixture (10 μl) containing 50 mM MES buffer (pH 6.0), 1 mM MgCl2, 1 mM CaCl2, 0.5% Triton CF-54, 100 μM CMP-[^14C]-NeuAc, a substrate sugar chain (which was added at 0.5 mg/ml in the case of glycolipids, and at 1 mg/ml in the case of glycoproteins or oligosaccharides), and a PA-hST6Gal II or PA-mST6Gal II suspension, was incubated at 37° C. for 3 to 20 hours. Thereafter, in the case of glycolipids, the reaction product was purified with a C-18 column (Sep-Pak Vac 100 mg; Waters) and the purified product was used as a sample. In the case of oligosaccharides or glycoproteins, the reaction product was directly used as a sample. Thus, the obtained sample was subjected to analysis. In the case of oligosaccharides or glycolipids, the sample was spotted on a silica gel 60 HPTLC plate (Merck), and it was then developed with a developing solvent consisting of 1-propanol:ammonia water:water=6:1:2.5 (for oligosaccharides), or a developing solvent consisting of chloroform:methanol: 0.02% CaCl2=55:45:10 (for glycolipids). In the case of glycoproteins, analysis was carried out by SDS-polyacrylamide gel electrophoresis. The obtained radioactivities were visualized with a BAS2000 radio image analyzer (Fuji Film) and then quantified.
In contrast, there were no glycolipids, which could be substrates of both the enzymes, as far as the inventors have examined. The activity of human ST6Gal I on oligosaccharides was also examined for comparison. […] (FIG. 10).

Molecule: Asialo- α1-Acid glycoprotein: desialylated α1-acid glycoprotein prepared at 80° C. for 1 hour in 0.02 N HCl
- Relative rate (%) Mouse ST8SiaVI [1]: 0%
- Relative rate (%) Human ST6Gal I [2]: 93.0%

Molecule: Asialofetuin: asialo glycoprotein acceptor substrate purchased from Sigma
- Relative rate (%) Mouse ST8SiaVI [1]: 0%
- Relative rate (%) Human ST6Gal I [2]: 95.0%

Molecule: Fetuin: glycoprotein acceptor substrate containing both O-glycans and N-glycans, purchased from Sigma
- activity of PA-mST8Sia VI on the substrate (in words) [1]: showed activity
- Relative rate (%) Mouse ST8SiaVI [1]: 100%
- Relative rate (%) Human ST6Gal I [2]: 13.0%

Molecule: Galβ1,3GalNAcβ1,4(NeuAcα2,3)Galβ1,4Glcβ1-Cer [GM1a]
- Relative rate (%) Mouse ST8SiaVI [1]: 0%
- Relative rate (%) Human ST6Gal I [2]: 0%

Molecule: NeuAcα2,3Galβ1,4Glcβ1-Cer [GM3]
- Km [1]: 500 µM
- Vmax value [1]: 0.67 pmol/h/ml enzyme solution
- activity of PA-mST8Sia VI on the substrate (in words) [1]: showed activity
- Relative rate (%) Mouse ST8SiaVI [1]: 13.0%
- Relative rate (%) Human ST6Gal I [2]: 0%

B2: Asialoovomucoid: desialylated ovomucoid prepared at 80° C. for 1 hour in 0.02 N HCl (protein, UniProt P01005 25-210, looked up)
Ovomucoid: AEVDCSRFPNATDKEGKDVLVCNKDLRPICGTDGVTYTNDCLLCAYSIEFGTNISKEHDGECKETVPMNCSSYANTTSEDGKVMVLCNRAFNPVCGTDGVTYDNECLLCAHKVEQGASVDKRHDGGCRKELAAVSVDCSEYPKPDCTAEDRPLCGSDNKTYGNKCNFCNAVVESNGTLTLSHFGKC
modifications: desialylated
notes: desialylated ovomucoid prepared at 80° C. for 1 hour in 0.02 N HCl
- Relative rate (%) Mouse ST8SiaVI [1]: 0%
- Relative rate (%) Human ST6Gal I [2]: 12.7%

Further lines, results first:

- Relative rate (%) Mouse ST8SiaVI [1]: 0%
- Relative rate (%) Human ST6Gal I [2]: 0%
Molecule: Galβ1,4Glcβ1-Cer [Lactosylceramide]

- Relative rate (%) Mouse ST8SiaVI [1]: 0%
- Relative rate (%) Human ST6Gal I [2]: 37.1%
Molecule: α1-Acid glycoprotein: glycoprotein acceptor substrate purchased from Sigma

- activity of PA-mST8Sia VI on the substrate (in words) [1]: showed activity
- Relative rate (%) Mouse ST8SiaVI [1]: 6.2%
- Relative rate (%) Human ST6Gal I [2]: 9.0%
B1: Ovomucoid: glycoprotein acceptor substrate which contains only N-glycans (protein, UniProt P01005 25-210, looked up)
Ovomucoid: B2 Ovomucoid
